Target: GST-fused PRAK protein (UniProt Q8IW41)
Assay: SPR; GST-fused PRAK captured by anti-GST antibodies on a CM5 chip; RAGE C-terminal region as analyte, 0 to 40 uM, HBS-EP buffer pH 7.4, 30 uL/min; Biacore X-100

UniProt Q8IW41, sequence (Q8IW41 whole entry, the tested form may be a part): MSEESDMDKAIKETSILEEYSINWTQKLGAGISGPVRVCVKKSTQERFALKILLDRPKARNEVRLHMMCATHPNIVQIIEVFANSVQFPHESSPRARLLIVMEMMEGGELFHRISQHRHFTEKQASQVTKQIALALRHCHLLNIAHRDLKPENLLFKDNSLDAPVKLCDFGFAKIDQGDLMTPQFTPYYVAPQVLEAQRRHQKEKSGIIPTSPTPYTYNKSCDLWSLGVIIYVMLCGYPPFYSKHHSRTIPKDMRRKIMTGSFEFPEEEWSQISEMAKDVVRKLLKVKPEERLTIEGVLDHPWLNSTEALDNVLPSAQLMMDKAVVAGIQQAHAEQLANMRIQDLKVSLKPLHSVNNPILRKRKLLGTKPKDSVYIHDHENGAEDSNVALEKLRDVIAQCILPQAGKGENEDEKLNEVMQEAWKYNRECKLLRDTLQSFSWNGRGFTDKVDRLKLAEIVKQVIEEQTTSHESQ

- Kd: 0.509 nM
Substance: RAGE C-terminal region, SPR analyte (domain or fragment)

Source: article PMC4709948
